Test results published in paper PMC8544800 (Biochemistry, 2020).

These binders were tested against hexahistidine (6His)-tagged KDM2B/SKP1 dimer (human, UniProt Q8NHM5 1059-1336; P63208 1-163) (assay: BLI).
Sequence of hexahistidine (6His)-tagged KDM2B/SKP1 dimer (Q8NHM5 1059-1336, chain 1 of 2): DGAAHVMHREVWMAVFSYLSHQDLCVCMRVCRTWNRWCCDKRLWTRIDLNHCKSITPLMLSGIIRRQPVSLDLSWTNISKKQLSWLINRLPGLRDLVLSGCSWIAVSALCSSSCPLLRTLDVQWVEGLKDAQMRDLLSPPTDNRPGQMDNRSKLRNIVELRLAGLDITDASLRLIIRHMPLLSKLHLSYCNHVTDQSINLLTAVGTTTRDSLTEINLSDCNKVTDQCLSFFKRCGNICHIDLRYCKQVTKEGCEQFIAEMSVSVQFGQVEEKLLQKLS
Sequence of hexahistidine (6His)-tagged KDM2B/SKP1 dimer (P63208 whole entry, chain 2 of 2): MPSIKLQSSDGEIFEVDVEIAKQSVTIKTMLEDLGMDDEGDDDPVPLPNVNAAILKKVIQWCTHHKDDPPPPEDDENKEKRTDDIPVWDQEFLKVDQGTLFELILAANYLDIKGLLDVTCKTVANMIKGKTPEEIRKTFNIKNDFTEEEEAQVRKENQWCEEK

Binder	Kd [nM]
PCGF1 RAWUL (150–259)/BCOR PUFD dimer (complex, human) chain 1: LPFSSFDHSKAHYYRYDEQLNLCLERLSSGKDKNKSVLQNKYVRCSVRAEVRHLRRVLCHRLMLNPQHVQLLFDNEVLPDHMTMKQIWLSRWFGKPSPLLLQYSVKEKRR chain 2: SDVFEFEFSETPLLPCYNIQVSVAQGPRNWLLLSDVLKKLKMSSRIFRCNFPNVEIVTIAEAEFYRQVSASLLFSCSKDLEAFNPESKELLDLVEFTNEIQTLLGSSVEWLHPSD	43000
PCGF1 RAWUL (150–259)/BCOR 1593–1748 dimer (complex, human) chain 1: LPFSSFDHSKAHYYRYDEQLNLCLERLSSGKDKNKSVLQNKYVRCSVRAEVRHLRRVLCHRLMLNPQHVQLLFDNEVLPDHMTMKQIWLSRWFGKPSPLLLQYSVKEKRR chain 2: DASGTWDFYGSSVCEPDDESGYDVLANPPGPEDQDDDDDAYSDVFEFEFSETPLLPCYNIQVSVAQGPRNWLLLSDVLKKLKMSSRIFRCNFPNVEIVTIAEAEFYRQVSASLLFSCSKDLEAFNPESKELLDLVEFTNEIQTLLGSSVEWLHPSD	106
PCGF1 RAWUL (150–259)/BCOR PUFD Leu1705Gln dimer (complex, human) chain 1: LPFSSFDHSKAHYYRYDEQLNLCLERLSSGKDKNKSVLQNKYVRCSVRAEVRHLRRVLCHRLMLNPQHVQLLFDNEVLPDHMTMKQIWLSRWFGKPSPLLLQYSVKEKRR chain 2: SDVFEFEFSETPLLPCYNIQVSVAQGPRNWLLLSDVLKKLKMSSRIFRCNFPNVEIVTIAEAEFYRQVSASQLFSCSKDLEAFNPESKELLDLVEFTNEIQTLLGSSVEWLHPSD	32

Further lines, results first:

Kd [nM]	Binder
~240	PCGF1 RAWUL (150–259)/BCORL1 PUFD dimer (complex, human) chain 1: LPFSSFDHSKAHYYRYDEQLNLCLERLSSGKDKNKSVLQNKYVRCSVRAEVRHLRRVLCHRLMLNPQHVQLLFDNEVLPDHMTMKQIWLSRWFGKPSPLLLQYSVKEKRR chain 2: DDFMFELSDKPLLPCYNLQVSVSRGPCNWFLFSDVLKRLKLSSRIFQARFPHFEITTMPKAEFYRQVASSQLLTPAERPGGLDDRSPPGSSETVELVRYEPDLLRLLGSEVEFQSCNS
~31	PCGF1 RAWUL (150–259)/BCOR 1448–1748 dimer (complex, human) chain 1: LPFSSFDHSKAHYYRYDEQLNLCLERLSSGKDKNKSVLQNKYVRCSVRAEVRHLRRVLCHRLMLNPQHVQLLFDNEVLPDHMTMKQIWLSRWFGKPSPLLLQYSVKEKRR chain 2: PMPPEARRLIVNKNAGETLLQRAARLGYEEVVLYCLENKICDVNHRDNAGYCALHEACARGWLNIVRHLLEYGADVNCSAQDGTRPLHDAVENDHLEIVRLLLSYGADPTLATYSGRTIMKMTHSELMEKFLTDYLNDLQGRNDDDASGTWDFYGSSVCEPDDESGYDVLANPPGPEDQDDDDDAYSDVFEFEFSETPLLPCYNIQVSVAQGPRNWLLLSDVLKKLKMSSRIFRCNFPNVEIVTIAEAEFYRQVSASLLFSCSKDLEAFNPESKELLDLVEFTNEIQTLLGSSVEWLHPSD
